Assay results reported in article PMC9678776, “A higher plant FAD synthetase is fused to an inactivated FAD pyrophosphatase” (The Journal of Biological Chemistry, 2022).
Values belong to the molecule of their own block, whether it stands above or below them.

Assays:
CrFADS1 = target: T1, CrFADS1 (Chlamydomonas reinhardtii, UniProt A0A2K3D179); assay: HPLC-fluorescence FAD synthetase assay, substrate-inhibition fit; type: biochemical; settings: substrate inhibition by FMN; 10 mM ATP, zinc acetate 2 mM above ATP, Hepes-NaOH pH 7.0, 30 °C
T1 construct: gene FADS1; bifunctional fusion
T1 sequence (A0A2K3D179 1-582): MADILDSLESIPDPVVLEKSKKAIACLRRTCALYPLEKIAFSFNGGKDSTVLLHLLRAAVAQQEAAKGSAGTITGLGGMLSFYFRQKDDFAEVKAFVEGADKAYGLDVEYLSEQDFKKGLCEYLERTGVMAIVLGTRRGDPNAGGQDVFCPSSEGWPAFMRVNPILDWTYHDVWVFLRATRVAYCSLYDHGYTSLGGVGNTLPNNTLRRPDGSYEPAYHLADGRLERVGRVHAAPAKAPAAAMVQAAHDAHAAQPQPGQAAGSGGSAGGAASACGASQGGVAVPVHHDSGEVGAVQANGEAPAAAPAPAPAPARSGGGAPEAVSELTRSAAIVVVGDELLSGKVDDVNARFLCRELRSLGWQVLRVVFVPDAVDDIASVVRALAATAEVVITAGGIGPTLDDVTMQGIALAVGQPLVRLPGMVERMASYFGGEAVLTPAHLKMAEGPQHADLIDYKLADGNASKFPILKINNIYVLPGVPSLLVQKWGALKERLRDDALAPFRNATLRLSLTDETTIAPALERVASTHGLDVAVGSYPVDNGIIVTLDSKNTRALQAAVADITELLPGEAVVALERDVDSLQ
Excerpt: (§1) HPLC-fluorescence FAD synthetase assay, substrate-inhibition fit on CrFADS1

AtFADS1^trunc = target: T2, AtFADS1^trunc (Arabidopsis thaliana, UniProt Q9LZE4); assay: as above; type: biochemical; settings: substrate inhibition by FMN; ATP, zinc acetate 2 mM above ATP, Hepes-NaOH pH 7.0, 30 °C
T2 construct: gene FADS1; N-terminal FAD synthetase domain only, starting at native Met1
T2 sequence (Q9LZE4 1-254 limits assumed): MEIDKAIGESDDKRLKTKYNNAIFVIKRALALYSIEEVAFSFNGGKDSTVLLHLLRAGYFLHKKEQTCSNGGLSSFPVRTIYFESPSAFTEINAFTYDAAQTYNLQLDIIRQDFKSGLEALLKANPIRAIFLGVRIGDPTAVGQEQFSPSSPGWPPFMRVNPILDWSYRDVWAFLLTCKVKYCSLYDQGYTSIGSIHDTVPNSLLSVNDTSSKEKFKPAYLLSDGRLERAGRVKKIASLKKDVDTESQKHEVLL
Excerpt: HPLC-fluorescence FAD synthetase assay, substrate-inhibition fit on AtFADS1^trunc

AtFADS1 = target: T3, AtFADS1 (Arabidopsis thaliana, UniProt Q9LZE4); assay: as above; type: biochemical; settings: substrate inhibition by FMN; 10 mM ATP, zinc acetate 2 mM above ATP, Hepes-NaOH pH 7.0, 30 °C
T3 construct: gene FADS1; N-terminus from primer MEIDKA
T3 sequence (Q9LZE4 1-497): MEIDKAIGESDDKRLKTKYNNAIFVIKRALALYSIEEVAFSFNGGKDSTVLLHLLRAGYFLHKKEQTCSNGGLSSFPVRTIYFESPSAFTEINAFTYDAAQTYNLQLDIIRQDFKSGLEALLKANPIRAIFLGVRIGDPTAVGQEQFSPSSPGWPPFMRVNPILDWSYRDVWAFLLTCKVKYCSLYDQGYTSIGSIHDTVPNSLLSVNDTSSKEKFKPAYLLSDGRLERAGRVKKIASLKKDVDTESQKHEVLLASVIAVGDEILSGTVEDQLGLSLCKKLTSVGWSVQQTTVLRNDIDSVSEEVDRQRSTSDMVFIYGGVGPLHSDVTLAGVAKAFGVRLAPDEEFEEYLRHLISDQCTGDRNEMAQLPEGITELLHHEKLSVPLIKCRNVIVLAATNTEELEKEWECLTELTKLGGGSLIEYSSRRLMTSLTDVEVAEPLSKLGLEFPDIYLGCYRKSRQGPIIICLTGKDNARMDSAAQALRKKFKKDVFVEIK
Excerpt: HPLC-fluorescence FAD synthetase assay, substrate-inhibition fit on AtFADS1

[1] = substrate: Cc1cc2nc3c(=O)[nH]c(=O)nc-3n(C[C@H](O)[C@H](O)[C@H](O)COP(=O)(O)OP(=O)(O)OC[C@H]3O[C@@H](n4cnc5c(N)ncnc54)[C@H](O)[C@@H]3O)c2cc1C; assay: HPLC-fluorescence FAD pyrophosphatase assay, Michaelis-Menten; type: biochemical, Chlamydomonas reinhardtii; settings: FAD pyrophosphatase activity, 2 mM CoCl2, 200 mM KCl, Hepes-NaOH pH 7.0, 30 °C
Excerpt: HPLC-fluorescence FAD pyrophosphatase assay, Michaelis-Menten on […]1

[2] = substrate: Cc1cc2nc3c(=O)[nH]c(=O)nc-3n(C[C@H](O)[C@H](O)[C@H](O)COP(=O)(O)O)c2cc1C; assay: HPLC-fluorescence FAD synthetase assay, substrate-inhibition fit; type: biochemical, Chlamydomonas reinhardtii; settings: FAD synthetase activity, 10 mM ATP, zinc acetate 2 mM above ATP, Hepes-NaOH pH 7.0, 30 °C
Excerpt: as §1

[3] = substrate: Nc1ncnc2c1ncn2[C@@H]1O[C@H](COP(=O)(O)OP(=O)(O)OP(=O)(O)O)[C@@H](O)[C@H]1O; assay: HPLC-fluorescence FAD synthetase assay, Michaelis-Menten; type: biochemical, Arabidopsis thaliana; settings: FAD synthetase activity, 15 μM FMN, zinc acetate 2 mM above ATP, Hepes-NaOH pH 7.0, 30 °C
Excerpt: HPLC-fluorescence FAD synthetase assay, Michaelis-Menten on […]1

Ki (CrFADS1): 336 ± 66 µM
Ki (AtFADS1^trunc): 32.7 ± 18.2 µM
Ki (AtFADS1): 190 ± 36 µM
Molecule: Cc1cc2nc3c(=O)[nH]c(=O)nc-3n(C[C@H](O)[C@H](O)[C@H](O)COP(=O)(O)O)c2cc1C [FMN]

B1: CrFADS1 (Chlamydomonas reinhardtii) (protein)
chain: T1 sequence (A0A2K3D179 1-582)
notes: bifunctional fusion
Km [1]: 4.88 ± 0.56 µM
kcat [1]: 0.395 ± 0.011 s⁻¹
kcat/Km [1]: 81000 ± 9600 M⁻¹ s⁻¹
Km [2]: 0.54 ± 0.09 µM
kcat [2]: 0.103 ± 0.004 s⁻¹
kcat/Km [2]: 191000 ± 33000 M⁻¹ s⁻¹

B2: AtFADS1 (Arabidopsis thaliana) (protein)
chain: T3 sequence (Q9LZE4 1-497)
notes: N-terminus from primer MEIDKA
Km [3]: 665 ± 11 µM
kcat [3]: 0.287 ± 0.011 s⁻¹
kcat/Km [3]: 432 ± 18 M⁻¹ s⁻¹
